Results reported in EP3381935A1 (Tigo GmbH, dated 2018).
Residue numbers refer to the chain shown, from its start. Names and notes keep the numbering of the source.

T1: hIFN-γ receptor on human amniotic WISH cells (human, UniProt P15260 18-489)
T1 sequence (looked up): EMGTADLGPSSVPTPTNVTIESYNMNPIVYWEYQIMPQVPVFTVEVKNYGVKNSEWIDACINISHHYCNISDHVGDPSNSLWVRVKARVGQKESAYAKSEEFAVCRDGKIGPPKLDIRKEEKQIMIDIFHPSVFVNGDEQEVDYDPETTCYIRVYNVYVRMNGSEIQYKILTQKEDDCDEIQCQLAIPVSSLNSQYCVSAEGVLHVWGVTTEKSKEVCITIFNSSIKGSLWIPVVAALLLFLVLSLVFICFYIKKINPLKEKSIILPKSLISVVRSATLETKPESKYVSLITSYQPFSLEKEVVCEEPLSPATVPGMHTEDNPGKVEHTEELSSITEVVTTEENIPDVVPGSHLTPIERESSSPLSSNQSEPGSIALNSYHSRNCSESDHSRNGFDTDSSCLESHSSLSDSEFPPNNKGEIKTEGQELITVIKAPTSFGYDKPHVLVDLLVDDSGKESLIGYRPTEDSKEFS

T2: recombinant hIFN-γ receptor (the extracellular part of the IFNGR1) (human, UniProt P15260 18-245)
T2 construct: extracellular domain; In solution for ITC; also called soluble (extracellular) part of the hIFN-γ receptor IFNGR1; interferon-gamma receptor
T2 sequence (looked up): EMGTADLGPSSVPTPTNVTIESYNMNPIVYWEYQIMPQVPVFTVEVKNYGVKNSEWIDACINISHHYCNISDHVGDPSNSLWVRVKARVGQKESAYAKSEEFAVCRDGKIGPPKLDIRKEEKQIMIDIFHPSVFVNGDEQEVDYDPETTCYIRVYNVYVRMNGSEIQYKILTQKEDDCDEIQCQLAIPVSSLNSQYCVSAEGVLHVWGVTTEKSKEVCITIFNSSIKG

B1: K88Q (138 aa) (ligand, human, UniProt P01579 24-161, looked up)
chain: QDPYVKEAENLKKYFNAGHSDVADNGTLFLGILKNWKEESDRKIMQSQIVSFYFKLFKNFKDDQSIQKSVETIKEDMNVKFFNSNKKQRDDFEKLTNYSVTDLNVQRKAIHELIQVMAELSPAAKTGKRKRSQMLFRG
notes: range 1-138; also called Control 3: K88Q(138 aa); Control 2: K88Q
B2: anti-gamma mutant protein K88Q_T27Y (138 aa) (ligand)
chain: B1 chain with T27Y
notes: Expressed in E. coli as a HIS-SUMO fusion and the tag was cleaved off; Positions count on the mature 143 aa hIFN-γ
B3: anti-gamma mutant protein K88Q_D41N (138 aa) (ligand)
chain: B1 chain with D41N
B4: reference hIFN-γ (143 aa) (ligand, human, UniProt P01579 24-161, looked up)
chain: B1 chain with Q88K
notes: mature; also called standard hIFN-γ; wild type hIFN-γ

target: T1, hIFN-γ receptor on human amniotic WISH …; assay: cell-based or functional assay

| Competitive ability % [%] | Binder |
| --- | --- |
| 25 | B1 |
| 35 | B2 |
| 30 | B3 |

target: T2, recombinant hIFN-γ receptor (the …); assay: ITC, IFNGR1 in the cell titrated with ligand, 20°C

| Kd [nM] | Binder |
| --- | --- |
| 18.9 | B1 |
| 28.2 | B2 |
| 136 | B4 |
